Results published in article doi:10.1101/2025.10.15.682582.

Tests used:
[1] = biological target: Noregen, recombinant norrin-derived growth factor (human) (UniProt Q00604); experiment: AUC
[2] = biological target: Noregen, recombinant norrin-derived growth factor (human) (UniProt Q00604); experiment: intact LC/ES-MS

Noregen, recombinant norrin-derived growth factor, sequence (Q00604 25-133): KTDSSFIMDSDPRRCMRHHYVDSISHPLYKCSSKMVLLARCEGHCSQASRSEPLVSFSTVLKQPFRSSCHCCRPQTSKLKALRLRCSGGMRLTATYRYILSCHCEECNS

Noregen, recombinant norrin-derived growth factor (from UniProt Q00604 25-133) (ligand)
percent of total content in the dimer peak [1]: 99.9% | stoichiometry N [1]: 2 | percent present as dimer [2]: 98% | stoichiometry N [2]: 2
